In PMC12552968, “The RING-finger domain of Arabidopsis RMR functions as an E3 ligase essential for post-Golgi trafficking” (The Journal of Biological Chemistry, 2025):

Target: T1, Arabidopsis E2 ubiquitin-conjugating enzyme AtUbc30 (Arabidopsis, UniProt Q9FKT3 1-148)
T1 construct: AtUbc30, Arabidopsis E2 ubiquitin-conjugating enzyme, At5g56150; source: E. coli SoluBL21, purified (GSTrap Sepharose, PreScission cleavage, gel filtration)
Assay: pull-down; AtUbc30 (50 to 60 μM) with equimolar GST, wildtype or I234Y GST-AtRMR1-RING in the presence of GSTrap Sepharose; 30 mM Tris pH 7.5, 150 mM NaCl, 2 mM DTT; 4 h at 4 °C; eluted with 20 mM reduced glutathione; 15% SDS-PAGE, Coomassie blue
Settings: both partners purified

T1 sequence (Q9FKT3 whole entry): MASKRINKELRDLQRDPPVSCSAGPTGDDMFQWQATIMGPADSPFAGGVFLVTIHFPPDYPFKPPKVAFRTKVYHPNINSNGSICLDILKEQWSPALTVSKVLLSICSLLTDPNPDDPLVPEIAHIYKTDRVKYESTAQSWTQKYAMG

binding result: binds
B1: GST-tagged RING-H2 domain of Arabidopsis RMR isoform-1 (GST-AtRMR1-RING), wildtype (domain or fragment, UniProt Q9M622 206-283, looked up)
chain: RLDAKLVHTLPCFTFTDSAHHKAGETCAICLEDYRFGESLRLLPCQHAFHLNCIDSWLTKWGTSCPVCKHDIRTETMS
notes: AtRMR1 (receptor-homology-transmembrane-RING-H2 protein 1), Arabidopsis, At5g66160, RING-H2 domain, residues 206-283; The methods tell only the purification of the form with the GST tag cleaved; also called E3; source: E. coli SoluBL21 (pGEX-6p-1), recombinant
